Measurements taken from publication PMC4432300, “Regulation of Oligomeric Organization of the Serotonin 5-Hydroxytryptamine 2C (5-HT2C) Receptor Observed by Spatial Intensity Distribution Analysis*” (The Journal of Biological Chemistry, 2015).
Where “and” joins values, the source holds several entries; their conditions need not be identical. Equal values may be shown once.

Key:
[1] = biological target: the molecule itself; assay: spatial intensity distribution analysis (SpIDA) of confocal images; basolateral membrane of intact cells treated with antagonist for 90 min at 37 °C (SB242084 50 nM, SB243213 50 nM or RS102221 100 nM); one-population model; QB against monomeric P-M-A206K eGFP
[2] = biological target: the molecule itself; assay: spatial intensity distribution analysis (SpIDA) of confocal images; basolateral membrane of intact cells induced with varying doxycycline, not treated with ligand (also vehicle, and after washout of antagonists with 60 min recovery); one-population model; QB against monomeric P-M-A206K eGFP

B1: human 5-HT2C receptor fused at its carboxyl terminus to A206K eGFP (5-HT2C-A206K eGFP) (receptor, UniProt P28335 33-458, looked up)
chain: IVTDIFNTSDGGRFKFPDGVQNWPALSIVIIIIMTIGGNILVIMAVSMEKKLHNATNYFLMSLAIADMLVGLLVMPLSLLAILYDYVWPLPRYLCPVWISLDVLFSTASIMHLCAISLDRYVAIRNPIEHSRFNSRTKAIMKIAIVWAISIGVSVPIPVIGLRDEEKVFVNNTTCVLNDPNFVLIGSFVAFFIPLTIMVITYCLTIYVLRRQALMLLHGHTEEPPGLSLDFLKCCKRNTAEEENSANPNQDQNARRRKKKERRPRGTMQAINNERKASKVLGIVFFVFLIMWCPFFITNILSVLCEKSCNQKLMEKLLNVFVWIGYVCSGINPLVYTLFNKIYRRAFSNYLRCNYKVEKKPPVRQIPRVAATALSGRELNVNIYRHTNEPVIEKASDNEPGIEMQVENLELPVNPSSVVSERISSV
notes: serotonin 5-hydroxytryptamine 2C (5-HT2C) receptor, human; construct in pEGFPN1, a gift of Dr. K. Herrick-Davis, subcloned into pcDNA5/FRT/TO; also called 5-HT2C-eGFP; serotonin 5-hydroxytryptamine 2C receptor; not shown: A206K eGFP, C-terminal, kept
- average quantal brightness relative to monomeric P-M-A206K eGFP, after SB242084 (50 nM, 90 min) [1]: 1.46 fold
- average quantal brightness relative to monomeric P-M-A206K eGFP [2]: 1.85 times
- stoichiometry N [2]: 2 and 4
